From the RNAGym collection of RNA variant scans (doi:10.1073/pnas.2313332121) come the findings set out here.

B1: TPR t1 (parent)
chain: GACCAAUCUGCCCUCAGAGCUCGAGAACAUCUUCGGAUGCAGAGGAGGCAGGCUUCGGUGGCGCGAUAGCGCCAACGUCCUCAACCUCCAAUGCAUCCCACCACAUGAUGAUGCCUGAAGAGCCUUGGUUUUUUG

In this series the parent is B1. Kind of series: polymerase ribozyme fitness, log enrichment relative to wild type (log ratio); higher = more active; in vitro selection for triplet polymerase activity. Summed up: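 One round of in vitro selection, in triplicate, was applied to PCR-built, transcribed mutant libraries of each subunit of a heterodimeric triplet polymerase ribozyme. The steps were annealing with a biotinylated primer, partner subunit and triplets, incubation frozen at −7 °C, gel excision of extended constructs, streptavidin-bead capture and RT-PCR. Fitness is the logarithm, base 2, of genotype enrichment over wild-type enrichment from inverse-variance-weighted replicate averages of Illumina-sequenced inputs and outputs, keeping genotypes with ≥10 input reads and ≥1 read per output.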
As for C72G U129C U130A, the “polymerase ribozyme fitness (log ratio)” value is -1.89.
For C72G G127U the value was -1.1.
Take C72U C88U U131C U133A: the “polymerase ribozyme fitness (log ratio)” value is -0.924.
In the case of C73A C86A it was -0.668; in that of C73A G110A G120A, -1.61.
Turning to C72U C124A, the “polymerase ribozyme fitness (log ratio)” value turned out to be 1.54.
In the case of C72U C124U it was 0.818; in that of C72G C101A C114U, -3.4; in that of C73A C99U A118G, -3.
With C72G U81C U87C A100U, the “polymerase ribozyme fitness (log ratio)” value was -2.07.
With C72A C101U C124A G135A, the “polymerase ribozyme fitness (log ratio)” value was determined as 2.37.
In the case of C72U U96A A118G it was -1.7.
In the case of C72U C85A A105U it was -3.17; in that of C72G C79A, -0.874.
In the case of C72U C123A, the “polymerase ribozyme fitness (log ratio)” value turned out to be 0.21.
As to C72G C86G U109A C114A G120C, the “polymerase ribozyme fitness (log ratio)” value is -5.75.
For C72G C86U A111U C115A, the “polymerase ribozyme fitness (log ratio)” value is -4.83.
For the variant C72G C88U, the “polymerase ribozyme fitness (log ratio)” value is -0.692.
In the case of C72G A111U it was -3.82.
For C72G A111G the value was 0.355.
Turning to C72G C114G U130G U133A, the “polymerase ribozyme fitness (log ratio)” value is -3.37.
Take C73A U87C A105U: the “polymerase ribozyme fitness (log ratio)” value is -1.35.
For C72U G127C the value was -1.75; for C72U G127U, -1.84; for C73G A100C, -1.47.
In the case of C73A G93A it was -1.04; in that of C72G G113C U129A, -4.04.
In the case of C72G A91C U96C C104A it was -4.69.
As for C72G G77A G120A, the “polymerase ribozyme fitness (log ratio)” value is -1.96.
For C72U C88A the value was 0.024; for C72U C88G, -0.779; for C72U C88U, 0.0321.
For C72U C88U C124A the value was 0.938; for C72U U78C A83U A90G A121G, 1.89.
In the case of C72U U78C, the “polymerase ribozyme fitness (log ratio)” value was -0.528.
In the case of C72U U132G G135U it was -0.759.
For C72U U81C G93C A119U G120C the value was -0.213; for C72G U78G, -0.102; for C72U A103U U125G, -6.8.
In the case of C72U A84U C85U C104U it was -0.48.
On to C72U U78C A83C, for which the “polymerase ribozyme fitness (log ratio)” value is -0.433.
As to C72A U87G, the “polymerase ribozyme fitness (log ratio)” value was 0.194.
Regarding C72G A90C C101U, the “polymerase ribozyme fitness (log ratio)” value is -1.47.
For the variant C72G C89A A90U, the “polymerase ribozyme fitness (log ratio)” value is -2.32.
In the case of C72U A121U it was 1.5; in that of C72U A121G, 0.744.
For C72U A121C the value was 1.6; for C72U G113A U126A, -2.61; for C72U C82U, -0.823.
For C72U C82A the value was -0.812; for C72A U81A C94U C114A, -2.21; for C72U G77U A100C A118U U129C, -2.77.
C72G G120A: the “polymerase ribozyme fitness (log ratio)” value was determined as 0.223.
Consider C72G G120U, for which the “polymerase ribozyme fitness (log ratio)” value was 0.278.
In the case of C72G G120C it was 0.587; in that of C73A U92A C104U, -2.28.
As to C73A A95G C104A G110U, the “polymerase ribozyme fitness (log ratio)” value is -3.5.
For C72A C80U, the “polymerase ribozyme fitness (log ratio)” value is 0.231.
In the case of C72G U92C C94A it was -3.47; in that of C72G C88G U96G, -2.68.
For C72A C88A G120U the value was -0.866.
On to C72G U125A U133C, for which the “polymerase ribozyme fitness (log ratio)” value is -0.433.
In the case of C73A C97A it was -4.87; in that of C72G U78C G113A, -1.93.
For C72A C115A G135A the value was -0.346; for C72U C80A U87C, -3.67; for C72G G77C U78C A105G A119G, -2.47.
In the case of C73G A121G it was 1.16; in that of C72G U78G U116A, -3.97; in that of C72U C124U G135A, 2.03.
For the variant C73A A111U, the “polymerase ribozyme fitness (log ratio)” value is -2.93.
In the case of C72A G120C it was 1.31; in that of C72U A118U G120U, -0.322; in that of C72A G117A U126A, -1.78.
For C72A U133A the value was 0.191; for C72A U78G U133A, 0.102.
For C72U C114A the value was -1.67; for C72U U78C C82G C101A A121C, -0.0659.
Take C72G C115U U116C: the “polymerase ribozyme fitness (log ratio)” value is -2.72.
For C72U C79U G122A the value was -0.67; for C73G A95C C124U G128U U129C, -1.71; for C72G C98A C101U G110U G120U C123G U130G, -6.41.
For C72G U78C C79A G128C the value was -4.09; for C72G C114A, -1.55.
For C72G C99U the value was -3.45.
In the case of C73A C94U, the “polymerase ribozyme fitness (log ratio)” value stood at 0.44.
In the case of C72A U96G U132A it was -0.0408; in that of C73G A108C A118U C123G, -4.86.
For C72G G122A C123G the value was 1.99.
For C73A C94U U130A the value was -0.716; for C72G C82G G93C, -1.73.
C73G A95C: the “polymerase ribozyme fitness (log ratio)” value was -2.83.
In the case of C73A U87G U129A it was -1.12; in that of C72G C80A U81G C86A, -6.59.
For C72G U92A A118U U131C the value was -3.98; for C73G A83G, -1.44; for C73A A74U C85U C94U C115U, -3.24.
In the case of C73G A111C, the “polymerase ribozyme fitness (log ratio)” value is -0.327.
For C72G C97U the value was -1.05.
For C72U U96C the value was -1.2; for C72G C86G, -2.24.
As for C72G C86A, the “polymerase ribozyme fitness (log ratio)” value was -0.939.
On to C72G C86U, for which the “polymerase ribozyme fitness (log ratio)” value is 0.195.
For C72U C102A G120U the value was -2.07; for C72G A84C, -0.56; for C72G A83U A90G C114G, -3.25.
In the case of C73G A121C G122A it was 0.495; in that of C72U C76A C98U, -1.75; in that of C72G G93U, -1.16.
For C72G C86U U130C the value was -0.236; for C72U U87G C104A, -0.492; for C73A C85A G117A A119G U133C G135C, -0.124.
Turning to C72G U81C C104G C115U U133A, the “polymerase ribozyme fitness (log ratio)” value was -6.64.
In the case of C72G A121U it was 0.731; in that of C72G A121G, 0.881; in that of C72G C94A A119U, -1.99.
For C73A C89U G110C the value was -5.15; for C72U U106A, 0.0802.
In the case of C72U U78C U81A A83G, the “polymerase ribozyme fitness (log ratio)” value was -1.17.
On to C73A G117C, for which the “polymerase ribozyme fitness (log ratio)” value was -2.37.
In the case of C72G U130A it was -0.458; in that of C72U U96G U106A G113A, -2.89; in that of C72A C85U C104U, 0.563.
In the case of C73A U116A C124A, the “polymerase ribozyme fitness (log ratio)” value amounted to 0.809.
In the case of C72A U131A it was -0.165.
Turning to C72U G110A U130A, the “polymerase ribozyme fitness (log ratio)” value is -1.72.
On to C72U C73A U81A C85U G122A, for which the “polymerase ribozyme fitness (log ratio)” value was -4.88.
For C72A C88U G93C the value was -0.854.
Take C72A G77C U92C G122A: the “polymerase ribozyme fitness (log ratio)” value is -3.67.
In the case of C72U A91G it was -1.21.
As for C72G U109G U125G, the “polymerase ribozyme fitness (log ratio)” value is -4.97.
As for C72G C85U C102U C104A A105G, the “polymerase ribozyme fitness (log ratio)” value is -7.34.
In the case of C72U A105U U131C U132A it was -2.36; in that of C72U C94G U132A, -1.02; in that of C73G A105C, -3.81.
Take C72G C104A: the “polymerase ribozyme fitness (log ratio)” value was -1.71.
Take C72U G93A C115U: the “polymerase ribozyme fitness (log ratio)” value was -1.52.
In the case of C72U A100U A108G it was -1.87; in that of C72G C99A C114G U129A U132A G135C, -4.93; in that of C73A U131G, -0.242.
For C72A C104A A105U G120A the value was -2.67.
With C72U C104A, the “polymerase ribozyme fitness (log ratio)” value is -2.05.
Regarding C72G A90G, the “polymerase ribozyme fitness (log ratio)” value was -1.28.
As to C72U A118U, the “polymerase ribozyme fitness (log ratio)” value was 0.0221.
For C72G G113A the value was -1.71; for C72G G113C, -2.87; for C72U C101G G120C, -1.35.
For C72G C88U A91C A118U G122U the value was -2.76; for C72G C86A U129C, -2.2; for C72G U112G, -0.196.
For C72G U112A the value was 0.104; for C72G U112C, 1.51; for C73G A91G, -2.69.
For C72G A111G G122A, the “polymerase ribozyme fitness (log ratio)” value was -1.48.
In the case of C72A U81A C86U U106A G128A U130A it was -4.98; in that of C72U C94G G110C, -5.81.
As for C72G G77U, the “polymerase ribozyme fitness (log ratio)” value was -1.71.
As to C72A U81C, the “polymerase ribozyme fitness (log ratio)” value is -0.634.
For the variant C73A C115U, the “polymerase ribozyme fitness (log ratio)” value was -1.36.
Consider C73A C115G, for which the “polymerase ribozyme fitness (log ratio)” value is -2.61.
As for C72U G93U C115U, the “polymerase ribozyme fitness (log ratio)” value was -2.06.
Turning to C72U C115U, the “polymerase ribozyme fitness (log ratio)” value was -0.526.
For C72U C115G the value was -2.33.
In the case of C72A G113C, the “polymerase ribozyme fitness (log ratio)” value was -2.03.
For C72G U106G the value was -1.97.
In the case of C72G U106C it was -0.865; in that of C73G A118U, -0.0973.
